Test results: the supplement of paper PMC12042874
± gives the uncertainty stated by the source.

Assay: amyloid nucleation score (Sup35N fusion, yeast selection) (log enrichment); library NNK1; higher = more nucleation; inactive = no reads after selection
Outline: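 Psi-negative yeast expressed Sup35N fused to peptides of 20 random codons. They were induced 24 hours with 100 μM copper sulfate, grown 7 days at 30°C without adenine and uracil, and their plasmid inserts from input and output were Illumina-sequenced. The nucleation score is the DiMSum log enrichment of output over input reads, centred on the mode score of non-aggregating sequences. Sequences with under 100 input reads were excluded.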

Substance	amyloid nucleation score
SRKCGDVCSKDGRPVCPGTE	1.67 ± 0.15
SRLATQTRLKMAGSISLFRS	-0.208 ± 1.2
SRLSQDPRTSSAIMSWLRYS	0.886 ± 1.1
SRNLCSQSWIRTATV	0.585 ± 0.56
SRNLLPSDTSHQVMYPVSTK	0.568 ± 0.28
SRPNDMFTALVYTCYLPNK	-0.539 ± 0.6
SRQRSYRDWVATFTF	-0.339 ± 0.52
SRRNYWVFGGHMFND	-0.134 ± 1.7
SRRVQLYVLGFRGIKSGTFL	-0.066 ± 0.62
SRSIRSYDPWMVCMSMWLSD	1.13 ± 0.9
SRSRRANYGLCDIRYYNSFE	0.862 ± 0.43
SRTGRH	0.972 ± 0.93
SRTHRDGTCYHSGTVKVHLP	-1.64 ± 2.7
SRTICGSEILTSKKTRFHAS	-0.702 ± 1.7
SRTVFGCEDIRERRWVFWEI	0.647 ± 0.69
SRTYFESRDFEEYRAMRPSL	inactive
SRTYPVDMFPMSLKLSINVL	-0.125 ± 0.79
SRVQYLILDIMVTRYGASTS	-0.262 ± 0.53
SRYYLSRPVLRYG	0.546 ± 0.42
SSCKCRCGFD	-0.699 ± 0.67
SSCYDRVLYAPDRRR	1.23 ± 0.45
SSGAYSLSKWYQYRMFSVVL	-0.771 ± 0.66
SSGFYLWCALYRSRGHCNDY	1.6 ± 0.18
SSGVFTSI	-0.042 ± 0.66
SSITVITVATQVEYNTVHDF	1.37 ± 0.45

Substance	amyloid nucleation score
SSKLDVCEFADDGQLVFGVG	-0.394 ± 0.61
SSLASMASVDRKNHRGSGEG	1.77 ± 0.11
SSLGNEFIFDSFGNK	-0.772 ± 0.73
SSLLFEPATASFILQD	-0.894 ± 0.68
SSLPRPPMPKWSDV	0.125 ± 0.88
SSMLSISVFEWITFRWR	0.181 ± 0.58
SSQRGGNPGIMFNWEIVLRG	2.59 ± 0.14
SSSFTSNSFLLLLWSYKDMF	1.16 ± 0.21
SSVILSDCSCFMVHQCWYLC	-2.13 ± 2.7
SSWSGMFTCSYTMMLWLRRL	-0.692 ± 0.75
STDLSYVSCAYVSTFLPNFR	2.2 ± 0.21
STILPIGWNFDCCITISSCV	0.372 ± 0.28
STMFYLIFCQCTSIYANLYQ	0.063 ± 0.41
STPAVDALRYCMTSIAFRKI	-1.11 ± 0.58
STRHPTKNR	0.823 ± 0.21
STRSLSCLFLNRTSHCLGTL	-0.721 ± 1.4
STVREFSVVGPYVTGSVAGR	0.383 ± 0.71
STYPLEEYKGSGCLAG	-0.522 ± 0.39
SVANGALSRLAYIKRYRVWW	0.522 ± 0.45
SVARFNVWVVLSSRNVTCQS	1.82 ± 0.12
SVDNMVGVTGSFGGARVILS	-0.237 ± 0.39
SVDVTRIIMIVVCRFKMWEL	0.736 ± 0.32
SVESYTKAISIYTIGERIVL	-0.004 ± 1.6
SVFELLCSPQSVNRTFNTPY	1.09 ± 0.36
SVFSLVYGKN	0.685 ± 0.81

Substance	amyloid nucleation score
SVGLTFNGGVYCSHVERTSW	1.93 ± 0.19
SVKRMWYLDV	-0.483 ± 0.32
SVLCELRV	-0.182 ± 0.36
SVLRRQDFTKLLMFRSGPLG	0.424 ± 0.38
SVLSSLVSEISGVVCLVLGH	-0.214 ± 0.57
SVNKSSKVFTELANVHERAL	0.136 ± 0.66
SVNRLTLKPSYAKYRVYSGH	0.46 ± 0.68
SVNTPTGSIFEICQYDSIKG	-0.302 ± 0.45
SVPMMSML	0.019 ± 0.25
SVSEWRQVILIIGVIVK	-0.278 ± 0.51
SVSVQERTSGVYSHVSSENY	-0.162 ± 0.45
SVSVSCFVV	inactive
SVSWYAMLRLSEIRDRCKSF	0.278 ± 0.32
SVSYVELLGAFIKGLGIIYF	-0.999 ± 0.63
SVVFGSSYRNAVGCWTWSQG	0.6 ± 0.4
SVVFLQRFLDR	-0.564 ± 1.2
SVVNDFVYRL	-0.588 ± 0.86
SVVSFINLIASYFRELVGAV	0.225 ± 0.95
SVWFWFSKGWFSLCWAFFEK	0.428 ± 1.2
SWALRWYPELIET	0.076 ± 0.29
SWEQMSYASSFISNVGRHKG	1.34 ± 0.2
SWGTGVIPMVRNSLRECTEL	-0.388 ± 0.98
SWIHVHHL	0.691 ± 0.7
SWMNS	0.759 ± 0.55
SWNRGVLESHKHAYFALPQF	0.417 ± 0.24

Substance	amyloid nucleation score
SWNVVFKVPLGLRVLYGYLC	-0.197 ± 0.28
SWSPRHELPLGKLRWIWDRG	1.03 ± 0.75
SWSSGGNFARFIQYVPATHA	0.117 ± 0.72
SWSSVQSAVKGHPLGGNTGR	-0.72 ± 0.74
SWVWCYWILSWIREFLLRQG	0.447 ± 0.42
SWWLICYYVSWYFSD	-1.69 ± 1.1
SWYCGTASLVAKAVADRAGD	0.062 ± 0.5
SYAMLCIYVGYFIFLNSRMS	inactive
SYCYKDGWELVLEYLFVNCT	1.21 ± 0.45
SYECVQNRQCAIGGNRSERF	0.666 ± 0.93
SYEVFEIISNCLEY	-0.321 ± 0.35
SYGDQSVEKSLRSTATPDPQ	0.105 ± 0.35
SYGLWHMAM	-0.232 ± 0.54
SYHSMA	inactive
SYILCHWTFGDKGRFPQNYR	2.3 ± 0.18
SYILEKGLQTAYCVC	1.42 ± 0.46
SYKGWVGLVLRVETDGNWSR	2.28 ± 0.13
SYKSWQ	0.978 ± 0.43
SYLFWDRCYSA	-0.247 ± 0.4
SYLGCVHWSRRTDLVTFFDF	0.495 ± 0.27
SYLNPTVMILGFYP	0.825 ± 0.41
SYPESTTRNF	-0.209 ± 0.39
SYRIMPLMCILNCLFNCIYI	4.8 ± 0.059
SYRPFLMLGAQLQPYRVSGS	1.32 ± 0.6
SYRSYGSSSCSVWRTAAGDQ	2.9 ± 0.084

Substance	amyloid nucleation score
SYTRPILIWSLNRFSAG	1.26 ± 0.34
SYVKDNISVSGADILTGAIC	-0.367 ± 0.48
SYVYHPTSRLVWIIRMIT	0.5 ± 0.38
TAIIPPHFLASDSFRWSCAC	0.008 ± 0.34
TALESFRHCLVQSNPGSQVV	-0.217 ± 0.5
TARRKSYDIFMLIMWFVAYY	2.53 ± 0.12
TASGVDIVRRGCPRLVMLVV	-0.42 ± 0.43
TASNDYLDIDPSMDQSRWCG	0.518 ± 0.27
TAYWIVYRVKGLLRFFSRLA	0.011 ± 0.36
TCIARHLQILSVNRCCVRFA	0.062 ± 0.44
TCIIFIYNSWSSLQPFMSGM	2.65 ± 0.21
TCIWDKPVSSGL	-0.543 ± 1
TCLWSYSNAFENPR	1.85 ± 0.31
TCRLKLVFLNVTVKSKFCVL	-0.362 ± 0.76
TCSGA	-0.073 ± 0.39
TCVCQFIWG	-0.086 ± 0.79
TDLMLYYCYSAVPCWDFPAS	0.073 ± 1
TDRMGIQCGRVSLRSRYIRC	-0.198 ± 0.87
TDVSVKLSVMMH	1.53 ± 0.16
TEAMTGYVLNNNWYSQLYVF	-0.601 ± 1.1
TECSSSGIALMWVFWRSICT	inactive
TEDDYYSGLRRGKDKEGCSF	-0.084 ± 0.44
TEDPYSGPILKEPVDLCWLE	0.494 ± 0.74
TEFFGVGLRMKSNGVWWISG	-0.65 ± 1.4
TEITC	0.837 ± 0.27

Substance	amyloid nucleation score
TEKAPGTGAKQANSKSSAYA	inactive
TEQGMWHSLAGGR	inactive
TEYISG	-0.026 ± 0.97
TFHWMKDAALSQSSVKRTMA	0.359 ± 0.59
TFLEIKVRD	-0.496 ± 0.19
TFLGLAGSHCLFSFVANSAR	1.24 ± 0.28
TFLYVWSTSDSYKK	0.148 ± 0.61
TFPGEWHWERTIVIVPNFFH	2.03 ± 0.15
TFTCSFTQLRQLFFFVSQGC	0.214 ± 0.46
TFTVAEQVALE	0.415 ± 0.47
TFVQF	-0.066 ± 0.51
TFVSLATTDFPPNFSLKLFV	-0.579 ± 0.49
TFVVN	0.677 ± 0.3
TFYCYLSLGSHEKKADFSNN	2.21 ± 0.15
TFYLSRDIRLYFSWN	7.83 ± 0.049
TFYMTSSLST	0.028 ± 0.67
TGGTNGHKASCEVRFTVTER	1.08 ± 0.41
TGKDLRAEHENFVARNHFPM	-0.954 ± 1.4
TGNTIAVRLLGKTNWTLIKT	-0.1 ± 0.23
TGSLLTSTWS	-0.474 ± 0.78
TGTDVQGRSRLSDRAWGGYD	-0.098 ± 0.36
TGWEVV	-1.16 ± 0.75
THAVREFWDLGGVNEENYGW	inactive
THWGRVELMFFRSSKHRLT	-0.334 ± 1
TIALRMNRINLDFKYCFNSF	1.49 ± 0.69

Substance	amyloid nucleation score
TIAMCISLIGIDSYY	0.997 ± 0.29
TIASTGVFNM	inactive
TIATLFIFRDLFNFECLNSH	4.61 ± 0.1
TISGAVRGCGGCSIRWLMSL	-0.663 ± 0.33
TIVGWSITIVRLHSFIFFNG	0.021 ± 0.35
TIWCVD	1.01 ± 0.28
TKHRELVLPGLVFTTEYCLV	-0.693 ± 1.6
TKIRCDRWTLYIKGITYRAL	0.86 ± 1.1
TKNSLGHNMLIDWGSCVGGC	1.23 ± 0.31
TKQFEPFCLRLSVVMLLLQE	0.034 ± 0.45
TKSTYSSTVTKRTSASCVTL	0.215 ± 1.1
TKWAVDY	0.347 ± 0.28
TLCQCKLT	-0.286 ± 0.67
TLESCGW	0.773 ± 0.22
TLHVEWSSVIAMLFKMSCGL	-0.785 ± 0.88
TLISSGNVHYMWKVTFLNNR	4.8 ± 0.063
TLKHEQAREGFFAM	-0.053 ± 0.56
TLLELLCEWNTVHKGSP	0.699 ± 0.3
TLLWFNEFILSGPNFRIGVV	0.857 ± 0.58
TLNIVHLYME	4.5 ± 0.065
TLNVFDH	-0.421 ± 0.4
